# Measurements: article PMC11527256, “Linkage-specific ubiquitin binding interfaces modulate the activity of the chlamydial deubiquitinase Cdu1 towards poly-ubiquitin substrates” (PLOS Pathogens, 2024)
# Molecular target: T1, ubiquitin propargylamide (UB-PA) (UniProt P0CG48 1-75, C-terminal propargylamide)
# T1 construct: also called ubiquitin-propargylamide suicide probe
# Experiment: NMR chemical shift perturbation of the covalent adduct against the apo protein
# Settings: both partners purified
binder,measurement,value
"Cdu1(130-401), wildtype (enzyme, source: E. coli Rosetta 2(DE3), purified (Ni-NTA, 3C cleavage, SEC); not shown: 6xHis, N-terminal, cleaved) PVKTQEDLLPLVPEQVFVEMYEDMARRQTIEALVPAWDSDIIFKCLCYFHTLYPGLIPLETFPPATIFNFKQKIISILEDKKAVLRGEPIKGPLPICCSKENYRRHLQRTTLLPVFMWYHPTPKTLSDTMQTMKQLAIKGSVGASHWLLVIVDIQARRLVYFDSLYNYVMPPENMKKELQSFAQQLDQVYPAYDSKKFSVKIAAKEVIQRGSGSSCGAWCCQFLHWYLKDPLTDALNDLPVDSVERHENLASFVQACEAAVQDLPELSWPEA",binding result,binds
